Biological target: 人SIRPα抗原 (human signal regulatory protein alpha, proprietary antigen) (human) (UniProt P78324)
Assay: BLI (Octet Red384), SIRPa on AR2G sensor, 50 nM CD47 without antibody as analyte (positive control), 1200 s association

Sequence of UniProt P78324 (P78324 31-370 limits assumed): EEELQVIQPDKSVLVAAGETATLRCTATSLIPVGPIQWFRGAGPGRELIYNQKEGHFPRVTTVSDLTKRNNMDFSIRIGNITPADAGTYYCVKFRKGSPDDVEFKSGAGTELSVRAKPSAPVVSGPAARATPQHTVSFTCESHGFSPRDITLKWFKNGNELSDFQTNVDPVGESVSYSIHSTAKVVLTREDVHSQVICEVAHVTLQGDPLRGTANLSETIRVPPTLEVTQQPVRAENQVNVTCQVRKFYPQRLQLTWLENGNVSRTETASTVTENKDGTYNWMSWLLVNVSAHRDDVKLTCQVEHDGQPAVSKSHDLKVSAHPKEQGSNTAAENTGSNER

信号 (response): 0.297 nm
Substance: 专有CD47抗原 (proprietary human CD47 antigen of Examples 6 and 7) (from UniProt Q08722 19-139) (receptor)
